# In IntAct's records for PubMed 31515488:
# B1: Microtubule-associated tumor suppressor candidate 2 (Homo sapiens), Q5JR59-3 (parent)
# chain: MGHCCCKPYNCLQCLDKTNESALVKEKELSIELANIRDEVAFHTAKCEKLQKEKEELERRFEDEVKRLGWQQQAELQELEERLQLQFEAEMARLQEEHGDQLLSIRCQHQEQVEDLTASHDAALLEMENNHTVAITILQDDHDHKVQELMSTHELEKKELEENFEKLRLSLQDQVDTLTFQSQSLRDRARRFEEALRKNTEEQLEIALAPYQHLEEDMKSLKQVLEMKNQQIHEQEKKILELEKLAEKNIILEEKIQVLQQQNEDLKARIDQNTVVTRQLSEENANLQEYVEKETQEKKRLSRTNEELLWKLQTGDPTSPIKLSPTSPVYRGSSSGPSSPARVSTTPR
# partner: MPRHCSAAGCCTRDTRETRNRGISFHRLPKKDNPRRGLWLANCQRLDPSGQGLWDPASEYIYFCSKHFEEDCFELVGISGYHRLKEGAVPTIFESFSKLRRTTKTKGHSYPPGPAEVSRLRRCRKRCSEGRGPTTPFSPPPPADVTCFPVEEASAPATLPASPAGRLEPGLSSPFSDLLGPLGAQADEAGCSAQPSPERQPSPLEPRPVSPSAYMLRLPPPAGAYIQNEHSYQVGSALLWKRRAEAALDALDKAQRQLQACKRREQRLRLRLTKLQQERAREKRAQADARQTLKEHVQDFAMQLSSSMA
# B2: Proto-oncogene serine/threonine-protein kinase mos (Homo sapiens), P00540 (parent)
# chain: MPSPLALRPYLRSEFSPSVDARPCSSPSELPAKLLLGATLPRAPRLPRRLAWCSIDWEQVCLLQRLGAGGFGSVYKATYRGVPVAIKQVNKCTKNRLASRRSFWAELNVARLRHDNIVRVVAASTRTPAGSNSLGTIIMEFGGNVTLHQVIYGAAGHPEGDAGEPHCRTGGQLSLGKCLKYSLDVVNGLLFLHSQSIVHLDLKPANILISEQDVCKISDFGCSEKLEDLLCFQTPSYPLGGTYTHRAPELLKGEGVTPKADIYSFAITLWQMTTKQAPYSGERQHILYAVVAYDLRPSLSAAVFEDSLPGQRLGDVIQRCWRPSAAQRPSARLLLVDLTSLKAELG
# partner: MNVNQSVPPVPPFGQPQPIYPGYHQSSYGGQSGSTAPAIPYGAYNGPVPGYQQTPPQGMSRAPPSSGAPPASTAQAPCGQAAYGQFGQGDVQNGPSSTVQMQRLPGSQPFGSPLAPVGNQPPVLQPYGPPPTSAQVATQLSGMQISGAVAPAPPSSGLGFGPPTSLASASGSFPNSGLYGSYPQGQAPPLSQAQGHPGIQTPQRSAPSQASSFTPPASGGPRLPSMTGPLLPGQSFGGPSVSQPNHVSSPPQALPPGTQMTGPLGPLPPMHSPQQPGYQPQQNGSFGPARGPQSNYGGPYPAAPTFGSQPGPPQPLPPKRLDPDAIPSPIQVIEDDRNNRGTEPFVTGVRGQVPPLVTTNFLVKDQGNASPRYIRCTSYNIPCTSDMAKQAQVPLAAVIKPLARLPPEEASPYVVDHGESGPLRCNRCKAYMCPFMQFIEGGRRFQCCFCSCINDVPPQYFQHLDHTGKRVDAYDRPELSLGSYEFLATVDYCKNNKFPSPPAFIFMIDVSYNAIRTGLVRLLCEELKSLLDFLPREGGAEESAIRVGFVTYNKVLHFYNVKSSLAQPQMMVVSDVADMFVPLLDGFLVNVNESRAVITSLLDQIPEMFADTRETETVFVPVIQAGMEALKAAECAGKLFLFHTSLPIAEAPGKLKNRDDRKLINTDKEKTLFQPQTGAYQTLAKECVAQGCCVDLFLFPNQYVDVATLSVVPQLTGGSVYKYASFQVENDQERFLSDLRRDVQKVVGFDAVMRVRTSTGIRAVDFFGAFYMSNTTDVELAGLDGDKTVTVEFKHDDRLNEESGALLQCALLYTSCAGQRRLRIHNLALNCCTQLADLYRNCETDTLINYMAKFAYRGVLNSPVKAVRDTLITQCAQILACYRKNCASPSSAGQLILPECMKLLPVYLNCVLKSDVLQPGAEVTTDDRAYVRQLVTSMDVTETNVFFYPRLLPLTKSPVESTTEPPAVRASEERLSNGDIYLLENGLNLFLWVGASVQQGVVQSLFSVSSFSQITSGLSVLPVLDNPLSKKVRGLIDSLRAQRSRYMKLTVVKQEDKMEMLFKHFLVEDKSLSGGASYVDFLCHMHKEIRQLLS
# B3: Keratin-associated protein 26-1 (Homo sapiens), Q6PEX3 (parent)
# chain: MSCPNYCSGNSNSGSLRTSRHIPLTSIDLCPTSVSCGDVLYLPTSSQDHTWVTDNCQETCGEPTSCQPVHCETGNLETSCGSSTAYYVPRPCQGSSFLPASFFSSSCLPVSCRPQRYVSSGCRPLRPLLNSYQPIGDCVPNAYRPQFCLSKSCQPQNLLTSGCQPSSCLAYRPQSLHVVSSSLRPLGPLFSGCQPLTHVFSTCRPSCSGL
# partner: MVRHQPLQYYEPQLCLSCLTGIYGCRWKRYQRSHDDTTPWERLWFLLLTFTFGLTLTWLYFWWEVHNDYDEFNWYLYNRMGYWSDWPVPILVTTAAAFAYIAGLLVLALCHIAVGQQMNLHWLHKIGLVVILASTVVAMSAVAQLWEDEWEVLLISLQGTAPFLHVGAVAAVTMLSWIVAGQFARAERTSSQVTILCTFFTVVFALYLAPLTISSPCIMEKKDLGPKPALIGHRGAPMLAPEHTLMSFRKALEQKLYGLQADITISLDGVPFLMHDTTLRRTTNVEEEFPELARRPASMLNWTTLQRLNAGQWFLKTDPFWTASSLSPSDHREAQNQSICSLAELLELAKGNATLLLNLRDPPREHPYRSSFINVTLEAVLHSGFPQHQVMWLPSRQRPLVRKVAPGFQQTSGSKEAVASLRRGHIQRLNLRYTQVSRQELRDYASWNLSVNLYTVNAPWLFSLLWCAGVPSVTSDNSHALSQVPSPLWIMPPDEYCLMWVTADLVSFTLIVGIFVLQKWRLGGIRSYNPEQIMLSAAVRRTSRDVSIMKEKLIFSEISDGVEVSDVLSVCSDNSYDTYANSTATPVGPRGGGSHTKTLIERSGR
# B4: Cytohesin-4 (Homo sapiens), Q9UIA0 (parent)
# chain: MDLCHPEPAELSSGETEELQRIKWHRKQLLEDIQKLKDEIADVFAQIDCFESAEESRMAQKEKELCIGRKKFNMDPAKGIQYFIEHKLLTPDVQDIARFLYKGEGLNKTAIGTYLGERDPINLQVLQAFVDCHEFANLNLVQALRQFLWSFRLPGEAQKIDRMMEAFATRYCLCNPGVFQSTDTCYVLSFSIIMLNTSLHNPNVRDRPPFERFVSMNRGINNGSDLPEDQLRNLFDSIKSEPFSIPEDDGNDLTHTFFNPDREGWLLKLGGRVKTWKRRWFILTDNCLYYFEFTTDKEPRGIIPLENLSVQKVDDPKKPFCLELYNPSCRGQKIKACKTDGDGRVVEGKHESYRISATSAEERDQWIESIRASITRVPFYDLVSTRKKKIASKQ
# partner: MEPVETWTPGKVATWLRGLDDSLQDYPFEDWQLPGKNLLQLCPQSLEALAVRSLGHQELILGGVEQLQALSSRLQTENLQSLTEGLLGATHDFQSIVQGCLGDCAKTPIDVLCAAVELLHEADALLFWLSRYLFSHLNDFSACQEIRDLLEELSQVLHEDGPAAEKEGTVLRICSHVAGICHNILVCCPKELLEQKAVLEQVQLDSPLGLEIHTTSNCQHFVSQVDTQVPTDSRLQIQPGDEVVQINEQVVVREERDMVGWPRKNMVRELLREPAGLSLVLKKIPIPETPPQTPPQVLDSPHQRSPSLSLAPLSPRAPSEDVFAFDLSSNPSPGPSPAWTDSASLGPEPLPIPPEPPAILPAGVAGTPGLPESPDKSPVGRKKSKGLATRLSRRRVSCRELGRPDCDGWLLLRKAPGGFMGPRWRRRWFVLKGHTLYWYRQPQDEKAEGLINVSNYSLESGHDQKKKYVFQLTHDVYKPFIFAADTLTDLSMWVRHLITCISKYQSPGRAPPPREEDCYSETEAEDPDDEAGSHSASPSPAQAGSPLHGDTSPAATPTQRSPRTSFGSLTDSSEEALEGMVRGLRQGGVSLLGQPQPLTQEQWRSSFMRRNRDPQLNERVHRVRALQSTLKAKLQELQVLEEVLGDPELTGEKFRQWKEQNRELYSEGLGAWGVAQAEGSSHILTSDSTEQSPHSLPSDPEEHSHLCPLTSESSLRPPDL
# B5: Vacuolar protein sorting-associated protein 37B (Homo sapiens), Q9H9H4 (parent)
# chain: MAGAGSEARFAGLSLVQLNELLEDEGQLTEMVQKMEETQNVQLNKEMTLASNRSLAEGNLLYQPQLDTLKARLTQKYQELQVLFEAYQIKKTKLDRQSSSASLETLLALLQAEGAKIEEDTENMAEKFLDGELPLDSFIDVYQSKRKLAHMRRVKIEKLQEMVLKGQRLPQALAPLPPRLPELAPTAPLPYPAPEASGPPAVAPRRIPPPPPPVPAGRLATPFTAAMSSGQAVPYPGLQCPPLPPRVGLPTQQGFSSQFVSPYPPPLPQRPPPRLPPHQPGFILQ
# partner: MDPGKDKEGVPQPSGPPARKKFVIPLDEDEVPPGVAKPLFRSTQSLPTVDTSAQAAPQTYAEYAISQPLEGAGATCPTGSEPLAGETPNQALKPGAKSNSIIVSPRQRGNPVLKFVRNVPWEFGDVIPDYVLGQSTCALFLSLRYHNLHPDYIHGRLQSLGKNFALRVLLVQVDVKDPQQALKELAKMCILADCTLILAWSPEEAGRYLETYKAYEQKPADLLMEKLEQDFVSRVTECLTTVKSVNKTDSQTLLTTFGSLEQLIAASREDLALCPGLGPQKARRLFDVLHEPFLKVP
# B6: Plasma alpha-L-fucosidase (Homo sapiens), Q9BTY2 (parent)
# chain: MRPQELPRLAFPLLLLLLLLLPPPPCPAHSATRFDPTWESLDARQLPAWFDQAKFGIFIHWGVFSVPSFGSEWFWWYWQKEKIPKYVEFMKDNYPPSFKYEDFGPLFTAKFFNANQWADIFQASGAKYIVLTSKHHEGFTLWGSEYSWNWNAIDEGPKRDIVKELEVAIRNRTDLRFGLYYSLFEWFHPLFLEDESSSFHKRQFPVSKTLPELYELVNNYQPEVLWSDGDGGAPDQYWNSTGFLAWLYNESPVRGTVVTNDRWGAGSICKHGGFYTCSDRYNPGHLLPHKWENCMTIDKLSWGYRREAGISDYLTIEELVKQLVETVSCGGNLLMNIGPTLDGTISVVFEERLRQMGSWLKVNGEAIYETHTWRSQNDTVTPDVWYTSKPKEKLVYAIFLKWPTSGQLFLGHPKAILGATEVKLLGHGQPLNWISLEQNGIMVELPQLTIHQMPCKWGWALALTNVI
# B7: Proto-oncogene serine/threonine-protein kinase mos (Homo sapiens), P00540 (parent)
# chain: B2 chain
# partner: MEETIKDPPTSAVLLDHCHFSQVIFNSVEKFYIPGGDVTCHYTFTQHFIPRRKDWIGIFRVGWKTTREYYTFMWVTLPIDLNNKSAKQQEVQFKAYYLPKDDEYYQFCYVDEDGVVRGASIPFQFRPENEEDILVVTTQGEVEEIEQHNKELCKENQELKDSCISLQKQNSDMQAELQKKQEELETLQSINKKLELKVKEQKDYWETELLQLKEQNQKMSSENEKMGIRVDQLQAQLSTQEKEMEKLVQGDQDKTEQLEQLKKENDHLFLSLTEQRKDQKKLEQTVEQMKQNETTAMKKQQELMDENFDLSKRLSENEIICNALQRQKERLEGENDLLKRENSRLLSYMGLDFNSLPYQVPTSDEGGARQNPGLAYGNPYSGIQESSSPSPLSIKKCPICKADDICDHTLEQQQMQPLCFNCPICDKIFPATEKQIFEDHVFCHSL
# B8: Tektin-4 (Homo sapiens), Q8WW24 (parent)
# chain: MAQTVPPCELPCKEYDVARNTGAYTSSGLATASFRTSKYLLEEWFQNCYARYHQAFADRDQSERQRHESQQLATETQALAQRTQQDSTRTVGERLQDTHSWKSELQREMEALAAETNLLLAQKQRLERALDATEVPFSITTDNLQCRERREHPNLVRDHVETELLKEAELIRNIQELLKRTIMQAVSQIRLNREHKETCEMDWSDKMEAYNIDETCGRHHSQSTEVQAHPYSTTFQESASTPETRAKFTQDNLCRAQRERLASANLRVLVDCILRDTSEDLRLQCDAVNLAFGRRCEELEDARYKLHHHLHKTLREITDQEHNVAALKQAIKDKEAPLHVAQTRLYLRSHRPNMELCRDAAQFRLLSEVEELNMSLTALREKLLEAEQSLRNLEDIHMSLEKDIAAMTNSLFIDRQKCMAHRTRYPTILQLAGYQ
# partner: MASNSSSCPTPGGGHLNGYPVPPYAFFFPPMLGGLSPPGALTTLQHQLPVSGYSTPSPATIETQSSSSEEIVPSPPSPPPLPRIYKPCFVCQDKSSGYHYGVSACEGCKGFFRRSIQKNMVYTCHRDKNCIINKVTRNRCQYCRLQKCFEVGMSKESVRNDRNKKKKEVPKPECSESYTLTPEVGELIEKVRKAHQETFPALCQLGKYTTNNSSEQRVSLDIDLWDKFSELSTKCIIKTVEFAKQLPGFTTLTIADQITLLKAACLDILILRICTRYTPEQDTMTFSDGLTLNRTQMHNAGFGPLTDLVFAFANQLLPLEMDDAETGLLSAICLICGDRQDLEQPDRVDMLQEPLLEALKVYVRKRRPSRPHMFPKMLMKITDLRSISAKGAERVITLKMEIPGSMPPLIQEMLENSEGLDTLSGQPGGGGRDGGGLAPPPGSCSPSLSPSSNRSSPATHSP
# Variants of: B1
# Details: with thap7_human THAP7, Q9BT49
row,Variant,effect of a mutation on the interaction
1,A89V,with no effect

# Variants of: B2
# Details: with sc24c_human SEC24C
row,Variant,effect of a mutation on the interaction
1,A123T,disrupting interaction strength
2,A105S,with no effect

# Variants of: B3
# Details: with gdpd5_human GDPD5, Q8WTR4
row,Variant,effect of a mutation on the interaction
1,S26Y,with no effect

# Variants of: B4
# Details: with cnkr1_human CNKSR1, Q969H4
row,Variant,effect of a mutation on the interaction
1,A9T,with no effect
2,M74V,with no effect

# Variants of: B5
# Details: with ercc1_human ERCC1, P07992
row,Variant,effect of a mutation on the interaction
1,M151I,with no effect

# Variants of: B6
# Details: with meox2_human MEOX2, P50222
# meox2_human MEOX2, P50222, sequence (P50222 whole entry): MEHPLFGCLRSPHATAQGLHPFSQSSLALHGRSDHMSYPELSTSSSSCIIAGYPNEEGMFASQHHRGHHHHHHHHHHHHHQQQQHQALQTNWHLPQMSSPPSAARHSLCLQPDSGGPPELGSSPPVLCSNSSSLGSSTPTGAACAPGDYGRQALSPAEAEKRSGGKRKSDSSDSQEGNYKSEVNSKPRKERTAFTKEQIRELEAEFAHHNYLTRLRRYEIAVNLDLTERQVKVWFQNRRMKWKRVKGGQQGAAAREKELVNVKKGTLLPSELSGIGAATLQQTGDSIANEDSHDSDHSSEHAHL
row,Variant,effect of a mutation on the interaction
1,A233E,with no effect

# Variants of: B7
# Details: with caco2_human CALCOCO2, Q13137
row,Variant,effect of a mutation on the interaction
1,A105S,with no effect
2,A123T,disrupting interaction strength

# Variants of: B8
# Details: with rara_human RARA
row,Variant,effect of a mutation on the interaction
1,A80V,disrupting interaction strength
